The text below walks through data of US20160230155A1.

Some results are limits rather than exact numbers.

B1: sulfamidase (SEQ ID NO:2) chemically modified according to the known method (WO 2008/109677): 20 mM sodium meta-periodate 0 °C 6.5 h, dialysis, 100 mM sodium … (enzyme)
chain: GSRPRNALLLLADDGGFESGAYNNSAIATPHLDALARRSLLFRNAFTSVSSCSPSRASLLTGLPQHQNGMYGLHQDVHHFNSFDKVRSLPLLLSQAGVRTGIIGKKHVGPETVYPFDFAYTEENGSVLQVGRNITRIKLLVRKFLQTQDDRPFFLYVAFHDPHRCGHSQPQYGTFCEKFGNGESGMGRIPDWTPQAYDPLDVLVPYFVPNTPAARADLAAQYTTVGRMDQGVGLVLQELRDAGVLNDTLVIFTSDNGIPFPSGRTNLYWPGTAEPLLVSSPEHPKRWGQVSEAYVSLLDLTPTILDWFSIPYPSYAIFGSKTIHLTGRSLLPALEAEPLWATVFGSQSHHEVTMSYPMRSVQHRHFRLVHNLNFKMPFPIDQDFYVSPTFQDLLNRTTAGQPTGWYKDLRHYYYRARWELYDRSRDPHETQNLATDPRFAQLLEMLRDQLAKWQWETHDPWVCAPDGVLEEKLSPQCQPLHNEL
modifications: N-glycans at N(21), N(131), N(244), N(393) of SEQ ID NO:1 disrupted by periodate oxidation and borohydride reduction; FGly50 about 56% converted to Ser50; methionine 184 and methionine 443 almost completely oxidized
B2: sulfamidase (SEQ ID NO:2) chemically modified according to new method 1: 20 mM sodium meta-periodate 0 °C 120 min, 50 mM sodium borohydride 0 °C 120 min (enzyme)
chain: GSRPRNALLLLADDGGFESGAYNNSAIATPHLDALARRSLLFRNAFTSVSSCSPSRASLLTGLPQHQNGMYGLHQDVHHFNSFDKVRSLPLLLSQAGVRTGIIGKKHVGPETVYPFDFAYTEENGSVLQVGRNITRIKLLVRKFLQTQDDRPFFLYVAFHDPHRCGHSQPQYGTFCEKFGNGESGMGRIPDWTPQAYDPLDVLVPYFVPNTPAARADLAAQYTTVGRMDQGVGLVLQELRDAGVLNDTLVIFTSDNGIPFPSGRTNLYWPGTAEPLLVSSPEHPKRWGQVSEAYVSLLDLTPTILDWFSIPYPSYAIFGSKTIHLTGRSLLPALEAEPLWATVFGSQSHHEVTMSYPMRSVQHRHFRLVHNLNFKMPFPIDQDFYVSPTFQDLLNRTTAGQPTGWYKDLRHYYYRARWELYDRSRDPHETQNLATDPRFAQLLEMLRDQLAKWQWETHDPWVCAPDGVLEEKLSPQCQPLHNEL
modifications: N-glycans at N(21), N(131), N(244), N(393) of SEQ ID NO:1 disrupted by periodate oxidation and borohydride reduction; FGly50 about 45% converted to Ser50
B3: sulfamidase (SEQ ID NO:2) chemically modified according to new method 2: 20 mM sodium meta-periodate 0 °C 120 min, 10 mM sodium borohydride 0 °C 120 min (enzyme)
chain: GSRPRNALLLLADDGGFESGAYNNSAIATPHLDALARRSLLFRNAFTSVSSCSPSRASLLTGLPQHQNGMYGLHQDVHHFNSFDKVRSLPLLLSQAGVRTGIIGKKHVGPETVYPFDFAYTEENGSVLQVGRNITRIKLLVRKFLQTQDDRPFFLYVAFHDPHRCGHSQPQYGTFCEKFGNGESGMGRIPDWTPQAYDPLDVLVPYFVPNTPAARADLAAQYTTVGRMDQGVGLVLQELRDAGVLNDTLVIFTSDNGIPFPSGRTNLYWPGTAEPLLVSSPEHPKRWGQVSEAYVSLLDLTPTILDWFSIPYPSYAIFGSKTIHLTGRSLLPALEAEPLWATVFGSQSHHEVTMSYPMRSVQHRHFRLVHNLNFKMPFPIDQDFYVSPTFQDLLNRTTAGQPTGWYKDLRHYYYRARWELYDRSRDPHETQNLATDPRFAQLLEMLRDQLAKWQWETHDPWVCAPDGVLEEKLSPQCQPLHNEL
modifications: N-glycans of SEQ ID NO:1 sites disrupted by periodate oxidation and borohydride reduction; FGly50 about 11.5% converted to Ser50

The assay has as its target M6P receptors expressed on MEF-1 fibroblasts. The assay can be described thus: cell-based or functional assay.
For B1, the receptor mediated endocytosis in MEF-1 cells: specific activity in cell homogenate relative to unmodified recombinant sulfamidase (% of unmodified recombinant sulfamidase) was less than 10.
Take B2: the receptor mediated endocytosis in MEF-1 cells: specific activity in cell homogenate relative to unmodified recombinant sulfamidase (% of unmodified recombinant sulfamidase) was less than 10.
As to B3, the receptor mediated endocytosis in MEF-1 cells: specific activity in cell homogenate relative to unmodified recombinant sulfamidase (% of unmodified recombinant sulfamidase) is less than 10.
